The target in assay [1] is Recombinant Tat (86 residues, BH10 isolate) (HIV-1 (BH10 isolate)) (UniProt P69697). The assay is described as follows: SPR. Background: Surface plasmon resonance follows binding to a sensor surface in real time, without labels.
The target of assay [2] is Tat-CypA complex formed beforehand (HIV-1 (BH10 isolate) | human) (UniProt P69697). As to the kind of experiment: SPR.
Assay [3] deals with Recombinant human CypA (human) (UniProt P62937). The assay is described as follows: MST.
In assay [4] the target is Tat-CypA complex formed beforehand (HIV-1 (BH10 isolate) | human) (UniProt P69697). As to the kind of experiment: MST.
For assay [5], the target named is CypA-CA complex formed beforehand (human | HIV-1) (UniProt P62937). The assay is described as follows: MST.

The Kd is a measure of binding affinity in units of concentration. As for “CypA-CA complex formed beforehand (from UniProt P62937 1-165)”, in assay [1], the dissociation constant Kd stood at 95 nM.

“Recombinant HIV-1 capsid protein (CA) (natural protein)”: the Kd came out at 110 nM in assay [2], 8300 nM in assay [3] and 5500 nM in assay [4].

As for “Recombinant Tat (86 residues, BH10 isolate) (from UniProt P69697 1-86) (natural protein)”, the Kd in assay [5] is 55 nM.
